In assay [1] the target is surface HIV-1 Env BG505 SOSIP (HIV-1 BG505.DS-SOSIP trimeric antigen), membrane-bound on HEK293 cells (HIV-1). The assay is described as follows: droplet co-expression, FACS sort for anti-Kappa-FITC, NGS of VH genes.
The target is the same in assay [2]. As to the kind of experiment: FACS, anti-Kappa-FITC stain of HEK293 cells co-expressing surface Env and secreted IgG1 after 24 h in droplets. For orientation: A flow cytometer gives signals particle by particle.

With VRC01 (antibody), the Enrichment Ratio (FITC+ prevalence / FITC- prevalence) in assay [1] is 2. This substance also showed a fold anti-Kappa binding against cells expressing 1-20 in assay [2] greater than 5 fold.

For the origin of these results see patent US20260126450A1.
